Measured values reported in the supplement of paper PMC10567573.

B1: SMTNL2 (parent)
chain: AFTMAENLANCERLIEVEDMMVMG
B2: TBC1D10A (parent)
chain: WCLVQICEKYLPGYYSEKLEAIQL

Variants of: B1
Assay: protein stability index of a GFP-peptide fusion (GPS, HEK-293T) (PSI 1-6); higher = more stable
Details: c terminus: a fixed tail appended
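Also: lentivirally expressed fusions sorted by FACS into six bins by GFP to DsRed ratio, PSI derived from sequencing read proportions per bin multiplied by bin number.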

Protein stability index of substitutions, site by site:
L8: K 3.98 | R 3.38 | V 3.14 | F 3.78 | S 4.28 | C 3.81 | P 4.09 | G 4.02 | H 3.85 | N 3.79 | E 4.29 | I 2.79 | Y 3.22 | D 4.36 | Q 4.06 | T 3.92 | W 2.83
R13: Y 2.17 | F 1.8 | A 2.33 | Q 3.17 | M 2.56 | H 3.03 | L 3.24 | D 4.24 | S 3.15 | N 3.75 | K 2.67 | C 2.08 | W 2.42 | P 3.62 | E 3.96 | T 2.99 | G 3.46 | V 1.49
C11: P 3.49 | V 2.75 | T 2.21 | W 2.21 | M 2.95 | K 3.59 | I 2.3 | G 3.23 | N 3.92 | Y 2.51 | E 3.9 | L 2.32 | D 4.07 | F 2.56 | H 3.63 | A 2.21 | Q 4.09 | R 3.34 | S 2.37
M4: C 3.13 | Q 4.04 | T 3.78 | G 4.19 | D 4.08 | H 3.81 | N 3.76 | K 3.77 | F 2.51 | W 2.27 | I 2.96 | L 1.63 | P 3.74 | S 4.04 | E 4.4 | A 4.14 | R 3.22 | Y 3.13 | V 3.18
V17: L 3.28 | N 2.07 | R 2.88 | P 4.04 | T 3.14 | D 3.57 | W 2.09 | G 3.71 | I 2.16 | H 2.35 | F 2.37 | A 2.54 | C 1.98 | Q 2.43 | Y 2.47 | S 3.25 | M 2.04 | E 2.97 | K 2.38
E16: T 1.72 | N 2.17 | R 1.83 | P 2.79 | K 1.89 | A 1.99 | Q 1.48 | M 2.92 | D 3.2 | G 2.62 | S 1.89 | F 2.14 | Y 1.94 | C 1.9 | H 1.97
E12: D 3.1 | S 2.92 | V 1.8 | R 1.71 | Q 2.41 | N 2.93 | F 2.22 | W 2.71 | T 2.06 | A 1.75 | Y 2.13 | H 2.42 | P 2.37 | G 2.06 | I 2.73 | M 2.54 | C 1.55 | L 1.7 | K 2.46
A9: E 3.65 | C 2.48 | F 1.81 | I 1.89 | W 1.39 | D 4.18 | L 2.06 | G 3.16 | R 2.31 | Y 2 | P 3.84 | H 2.34 | Q 2.91 | N 2.49 | S 2.64 | M 2.57 | V 2.71 | T 2.85 | K 2.3
E6: Y 2.76 | W 1.81 | A 1.83 | I 2.69 | F 2.45 | H 2.09 | K 1.77 | D 2.8 | Q 1.3 | G 2.15 | C 2.27 | M 4.33 | P 2.89 | T 1.74 | R 1.51 | S 1.65 | N 1.96

Variants of: B2
Assay: as above
Details: c terminus: a fixed tail appended

Protein stability index: each site, then its substitutions
L24: W 2.98 | H 1.14 | T 2.55 | V 2.38 | K 3.14
